# Source: patent US20230212319A1, “NOVEL ANTIGEN BINDING DOMAINS AND SYNTHETIC ANTIGEN RECEPTORS INCORPORATING THE SAME” (University of Southern California, priority 2020, published 2023)
# B1: 22130 (protein)
# chain: MALPVTALLLPLALLLHAARPACEVQLLESGGGLIQPGGSLRLSCAASGFTFSSHAMTWVRQAPGKGLEWVSAISGSGDYTHYADSVKGRFTISRDNSKNTVYLQMNSLRAEDSAVYYCAKDEDGGSLLGHRGQGTLVTVSSGTGGGGSGGGGSGGGGSEFDIQMTQSPSSLSASVGDRVTITCKASDHINNWLAWYQQKPGQAPKLLIYGATTLETGVPSRFSGSGSGTDYTLTISSLQPEDFATYYCQQSWNTPWTFGQGTKLEIKRLEDLKNVFPPEVAVFEPSKAEIAHTQKATLVCLATGFYPDHVELSWWVNGKEVHSGVCTDPQPLKEQPALNDSRYCLSSRLRVSATFWQNPRNHFRCQVQFYGLSENDEWTQDRAKPVTQIVSAEAWGRADCGITSASYHQGVLSATILYEILLGKATLYAVLVSALVLMAMVKRKDSRGRAKRSGSGATNFSLLKQAGDVEENPGPTSATMDWIWRILFLVGAATGAHSGPQVQLQESGGGLAQAGGSLRLSCAASGRTFSMGWFRQAPGKEREFVAAITYSGGSPYYASSVRGRFTISRDNAKNTVYLQMNSLKPEDTAVYYCAANPTYGSDWNAENWGQGTQVTVSSGSGGGGSGGGGSGGGGSFEQVQLQQPGAELVKPGASVKMSCKASGYAFSSYWINWMKQKPGQGLEWIGQIYPGDGDTNYNGKFKGRATLTADTSSSTAYMQLSSLTSEDSAVYFCARSITTVVGCAMDYWGQGTSVTVSSTRIQNPDPAVYQLRDSKSSDKSVCLFTDFDSQTNVSQSKDSDVYITDKCVLDMRSMDFKSNSAVAWSNKSDFACANAFNNSIIPEDTFFPSSDVPCDVKLVEKSFETDTNLNFQNLSVIGFRILLLKVAGFNLLMTLRLWSSRAKRSGSGVKQTLNFDLLKLAGDVESNPGPSRGHMTEYKPTVRLATRDDVPRAVRTLAAAFADYPATRHTVDPDRHIERVTELQELFLTRVGLDIGKVWVADDGAAVAVWTTPESVEAGAVFAEIGPRMAELSGSRLAAQQQMEGLLAPHRPKEPAWFLATVGVSPDHQGKGLGSAVVLPGVEAAERAGVPAFLETSAPRNLPFYERLGFTVTADVEVPEGPRTWCMTRKPGA
# B2: 22116 (protein)
# chain: MALPVTALLLPLALLLHAARPQVQLVESGGGLVQPGGSLRLSCAASGFTFTNHAMSWVRQAPGKGLELVSSISGNGRTTYYADSVKGRFTISRDISKNTLDLQMNSLRAEDTAVYYCAKDGGETLVDSRGQGTLVTVSSLEIQNPDPAVYQLRDSKSSDKSVCLFTDFDSQTNVSQSKDSDVYITDKCVLDMRSMDFKSNSAVAWSNKSDFACANAFNNSIIPEDTFFPSSDVPCDVKLVEKSFETDTNLNFQNLSVIGFRILLLKVAGFNLLMTLRLWSSRAKRSGSGVKQTLNFDLLKLAGDVESNPGPTSTMALPVTALLLPLALLLHAARPQVQLVESGGGLVQPGGSLRLSCAASGFTFTNHAMSWVRQAPGKGLELVSSISGNGRTTYYADSVKGRFTISRDISKNTLDLQMNSLRAEDTAVYYCAKDGGETLVDSRGQGTLVTVSSLESGGGGSFEQVQLQQPGAELVKPGASVKMSCKASGYAFSSYWINWMKQKPGQGLEWIGQIYPGDGDTNYNGKFKGRATLTADTSSSTAYMQLSSLTSEDSAVYFCARSITTVVGCAMDYWGQGTSVTVSSTREDLKNVFPPEVAVFEPSKAEIAHTQKATLVCLATGFYPDHVELSWWVNGKEVHSGVCTDPQPLKEQPALNDSRYCLSSRLRVSATFWQNPRNHFRCQVQFYGLSENDEWTQDRAKPVTQIVSAEAWGRADCGITSASYHQGVLSATILYEILLGKATLYAVLVSALVLMAMVKRKDSRGRAKRSGSGATNFSLLKQAGDVEENPGPSRGHMTEYKPTVRLATRDDVPRAVRTLAAAFADYPATRHTVDPDRHIERVTELQELFLTRVGLDIGKVWVADDGAAVAVWTTPESVEAGAVFAEIGPRMAELSGSRLAAQQQMEGLLAPHRPKEPAWFLATVGVSPDHQGKGLGSAVVLPGVEAAERAGVPAFLETSAPRNLPFYERLGFTVTADVEVPEGPRTWCMTRKPGA
# B3: 22142 (protein)
# chain: MALPVTALLLPLALLLHAARPQVQLVESGGGLVQPGGSLRLSCAASGFTFTNHAMSWVRQAPGKGLELVSSISGNGRTTYYADSVKGRFTISRDISKNTLDLQMNSLRAEDTAVYYCAKDGGETLVDSRGQGTLVTVSSLEGGGGSGGGGSIEGGGGSGGGGSKVQLLESGGGLVQPGGSLRLSCAASGFIFSSYAMSWVRQAPGKGQEWVSGVSGTGVNTYYADSVKGRFTISRDNSKNTLYLQMNSLRAEDTAVYYCASGKGWDSGSWYEDYRGQGTLVTVSSGTGGGGSGGGGSGGGGSEFDIQMTQSPSSLSASVGDRVTITCKASDHINNWLAWYQQKPGQAPKLLIYGATTLETGVPSRFSGSGSGTDYTLTISSLQPEDFATYYCQQSWNTPWTFGQGTKLEIKRLEIQNPDPAVYQLRDSKSSDKSVCLFTDFDSQTNVSQSKDSDVYITDKCVLDMRSMDFKSNSAVAWSNKSDFACANAFNNSIIPEDTFFPSSDVPCDVKLVEKSFETDTNLNFQNLSVIGFRILLLKVAGFNLLMTLRLWSSRAKRSGSGVKQTLNFDLLKLAGDVESNPGPTSATMDWIWRILFLVGAATGAHSGPQVQLQESGGGLAQAGGSLRLSCAASGRTFSMGWFRQAPGKEREFVAAITYSGGSPYYASSVRGRFTISRDNAKNTVYLQMNSLKPEDTAVYYCAANPTYGSDWNAENWGQGTQVTVSSGSGGGGSGGGGSGGGGSFEQVQLQQPGAELVKPGASVKMSCKASGYAFSSYWINWMKQKPGQGLEWIGQIYPGDGDTNYNGKFKGRATLTADTSSSTAYMQLSSLTSEDSAVYFCARSITTVVGCAMDYWGQGTSVTVSSTREDLKNVFPPEVAVFEPSKAEIAHTQKATLVCLATGFYPDHVELSWWVNGKEVHSGVCTDPQPLKEQPALNDSRYCLSSRLRVSATFWQNPRNHFRCQVQFYGLSENDEWTQDRAKPVTQIVSAEAWGRADCGITSASYHQGVLSATILYEILLGKATLYAVLVSALVLMAMVKRKDSRGRAKRSGSGATNFSLLKQAGDVEENPGPSRGHMTEYKPTVRLATRDDVPRAVRTLAAAFADYPATRHTVDPDRHIERVTELQELFLTRVGLDIGKVWVADDGAAVAVWTTPESVEAGAVFAEIGPRMAELSGSRLAAQQQMEGLLAPHRPKEPAWFLATVGVSPDHQGKGLGSAVVLPGVEAAERAGVPAFLETSAPRNLPFYERLGFTVTADVEVPEGPRTWCMTRKPGA
# B4: 22229 (protein)
# chain: MALPVTALLLPLALLLHAARPACEVQLLESGGGLIQPGGSLRLSCAASGFTFSSHAMTWVRQAPGKGLEWVSAISGSGDYTHYADSVKGRFTISRDNSKNTVYLQMNSLRAEDSAVYYCAKDEDGGSLLGHRGQGTLVTVSSGTGAIGFLRTAEFDIQMTQSPSSLSASVGDRVTITCKASDHINNWLAWYQQKPGQAPKLLIYGATTLETGVPSRFSGSGSGTDYTLTISSLQPEDFATYYCQQSWNTPWTFGQGTKLEIKRLEDLKNVFPPEVAVFEPSKAEIAHTQKATLVCLATGFYPDHVELSWWVNGKEVHSGVCTDPQPLKEQPALNDSRYCLSSRLRVSATFWQNPRNHFRCQVQFYGLSENDEWTQDRAKPVTQIVSAEAWGRADCGITSASYHQGVLSATILYEILLGKATLYAVLVSALVLMAMVKRKDSRGRAKRSGSGATNFSLLKQAGDVEENPGPTSATMDWIWRILFLVGAATGAHSGPEVQLVESGGGLVQAGGSLRLSCAASGRTFSMGWFRQAPGKEREFVAAITYSGGSPYYADSVKGRFTISRDNAKNTVYLQMNSLKPEDTAVYYCAANPTYGSDWNAENWGQGTQVTVSSGSGGGGSGGGGSGGGGSFEQVQLQQPGAELVKPGASVKMSCKASGYAFSSYWINWMKQKPGQGLEWIGQIYPGDGDTNYNGKFKGRATLTADTSSSTAYMQLSSLTSEDSAVYFCARSITTVVGCAMDYWGQGTSVTVSSTRIQNPDPAVYQLRDSKSSDKSVCLFTDFDSQTNVSQSKDSDVYITDKCVLDMRSMDFKSNSAVAWSNKSDFACANAFNNSIIPEDTFFPSPESSCDVKLVEKSFETDTNLNFQNLSVIGFRILLLKVAGFNLLMTLRLWSSRAKRSGSGVKQTLNFDLLKLAGDVESNPGPSRGHMTEYKPTVRLATRDDVPRAVRTLAAAFADYPATRHTVDPDRHIERVTELQELFLTRVGLDIGKVWVADDGAAVAVWTTPESVEAGAVFAEIGPRMAELSGSRLAAQQQMEGLLAPHRPKEPAWFLATVGVSPDHQGKGLGSAVVLPGVEAAERAGVPAFLETSAPRNLPFYERLGFTVTADVEVPEGPRTWCMTRKPGA
# System: RAJI cells
# Assay: JNG assay, co-culture with RAJI cells
# Type: cell-based
# Conditions: JNG cells expressing construct, co-culture with Raji
# Outline: (§1)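 Read-out is NFAT-driven GFP measured by flow cytometry after ~4–18 h co-culture of SAR-expressing JNG cells with target cells (E:T about 1:2). SARs were introduced by lentiviral spinfection and selected with puromycin or blasticidin when possible; scores (+/- to 5+ ≈ 5–50% GFP+) are relative to parental JNG cells.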
row,Molecule,NFAT-GFP ASSAY: Raji
1,B1,"4+ (refer to approximately 5%, 10%, 20%, 30%, 40% and 50% GFP positive cells)"
2,B2,"3+ (refer to approximately 5%, 10%, 20%, 30%, 40% and 50% GFP positive cells)"
3,B3,"+ (refer to approximately 5%, 10%, 20%, 30%, 40% and 50% GFP positive cells)"
4,B4,"3+ (refer to approximately 5%, 10%, 20%, 30%, 40% and 50% GFP positive cells)"

# System: RAJI-CD19-KO cells
# Assay: JNG assay, co-culture with RAJI-CD19-KO cells
# Type: cell-based
# Conditions: co-culture with Raji-CD19-KO
# Outline: as §1
row,Molecule,NFAT-GFP ASSAY: Raji-CD19-KO
1,B1,"5+ (refer to approximately 5%, 10%, 20%, 30%, 40% and 50% GFP positive cells)"
2,B2,"2+ (refer to approximately 5%, 10%, 20%, 30%, 40% and 50% GFP positive cells)"
3,B3,"+ (refer to approximately 5%, 10%, 20%, 30%, 40% and 50% GFP positive cells)"
4,B4,"5+ (refer to approximately 5%, 10%, 20%, 30%, 40% and 50% GFP positive cells)"

# System: RS;411
# Assay: JNG assay, co-culture with RS;411 cells
# Type: cell-based
# Conditions: co-culture with RS411
# Outline: as §1
row,Molecule,NFAT-GFP ASSAY: RS411
1,B1,"4+ (refer to approximately 5%, 10%, 20%, 30%, 40% and 50% GFP positive cells)"
2,B2,"2+ (refer to approximately 5%, 10%, 20%, 30%, 40% and 50% GFP positive cells)"
3,B3,"+/- (refer to approximately 5%, 10%, 20%, 30%, 40% and 50% GFP positive cells)"
4,B4,"2+ (refer to approximately 5%, 10%, 20%, 30%, 40% and 50% GFP positive cells)"

# System: Nalm6 cells
# Assay: JNG assay, co-culture with Nalm6 cells
# Type: cell-based
# Conditions: co-culture with Nalm6
# Outline: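 Jurkat NFAT-GFP reporter cells stably expressing lentivirally transduced SARs, drug-selected where possible, were co-cultured with target cells at E:T ≈1:2 for ~4–18 h. GFP measured by FACS; scored +/- to 5+ (~5–50% GFP+ cells) above parental reporter cells.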
row,Molecule,NFAT-GFP ASSAY: Nalm6
1,B2,"3+ (refer to approximately 5%, 10%, 20%, 30%, 40% and 50% GFP positive cells)"
2,B3,"+ (refer to approximately 5%, 10%, 20%, 30%, 40% and 50% GFP positive cells)"

# System: L363 cells
# Assay: JNG assay, co-culture with L363 cells
# Type: cell-based
# Conditions: co-culture with L363
# Outline: as §1
row,Molecule,NFAT-GFP ASSAY: L363
1,B1,"5+ (refer to approximately 5%, 10%, 20%, 30%, 40% and 50% GFP positive cells)"
